The source of these data is patent US20260158064A1 (NANJING PROBIO BIOTECH, published 2026).

Experiment [1] has as its target human ROR1-His protein (fused with a His protein tag, Acrobiosystems, RO1-H522y) (human) (UniProt Q01973). Kind of experiment: indirect ELISA, antigen coated at 1 ug/ml. A general note: In an ELISA, binding on a coated surface is turned into a signal by an enzyme label.
In experiment [2] the target is human ROR1 Kringle-His domain protein (amino acid sequence at positions 308-395, Acrobiosystems, RO1-H5223) (human) (UniProt Q01973). Kind of experiment: indirect ELISA, antigen coated at 1 ug/ml.
Sequence of human ROR1 Kringle-His domain protein (amino acid sequence at positions 308-395, Acrobiosystems, RO1-H5223) (human) (Q01973 308-395 limits assumed, form in doubt): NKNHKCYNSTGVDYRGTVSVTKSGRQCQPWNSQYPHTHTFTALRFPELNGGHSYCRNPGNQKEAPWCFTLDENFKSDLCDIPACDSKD
Experiment [3] deals with human ROR1 expressed on the engineered cell line CHO-K1/ROR1 (human) (UniProt Q01973). Description: flow cytometry of CHO-K1_ROR1 cells stained with the PE-labelled antibody; the CHO-K1 row of the same box prints 20.8. In general terms: Flow cytometry measures light scatter and fluorescence of single cells or particles in a stream.
Experiment [4] has the same target. Kind of experiment: flow cytometry of CHO-K1_ROR1 cells stained with the PE-labelled antibody; the ROR1- gate prints 0.75.
Experiment [5] deals with human ROR1 expressed on CHO cells (CHO-K1/Human ROR1 stable cells) (human) (UniProt Q01973). Description: flow cytometry, 10 ug/ml antibody on Human ROR1-CHO-K1 cells (curve 1), fluorescent secondary antibody.
Sequence of human ROR1 expressed on CHO cells (CHO-K1/Human ROR1 stable cells) (human) (Q01973 30-937): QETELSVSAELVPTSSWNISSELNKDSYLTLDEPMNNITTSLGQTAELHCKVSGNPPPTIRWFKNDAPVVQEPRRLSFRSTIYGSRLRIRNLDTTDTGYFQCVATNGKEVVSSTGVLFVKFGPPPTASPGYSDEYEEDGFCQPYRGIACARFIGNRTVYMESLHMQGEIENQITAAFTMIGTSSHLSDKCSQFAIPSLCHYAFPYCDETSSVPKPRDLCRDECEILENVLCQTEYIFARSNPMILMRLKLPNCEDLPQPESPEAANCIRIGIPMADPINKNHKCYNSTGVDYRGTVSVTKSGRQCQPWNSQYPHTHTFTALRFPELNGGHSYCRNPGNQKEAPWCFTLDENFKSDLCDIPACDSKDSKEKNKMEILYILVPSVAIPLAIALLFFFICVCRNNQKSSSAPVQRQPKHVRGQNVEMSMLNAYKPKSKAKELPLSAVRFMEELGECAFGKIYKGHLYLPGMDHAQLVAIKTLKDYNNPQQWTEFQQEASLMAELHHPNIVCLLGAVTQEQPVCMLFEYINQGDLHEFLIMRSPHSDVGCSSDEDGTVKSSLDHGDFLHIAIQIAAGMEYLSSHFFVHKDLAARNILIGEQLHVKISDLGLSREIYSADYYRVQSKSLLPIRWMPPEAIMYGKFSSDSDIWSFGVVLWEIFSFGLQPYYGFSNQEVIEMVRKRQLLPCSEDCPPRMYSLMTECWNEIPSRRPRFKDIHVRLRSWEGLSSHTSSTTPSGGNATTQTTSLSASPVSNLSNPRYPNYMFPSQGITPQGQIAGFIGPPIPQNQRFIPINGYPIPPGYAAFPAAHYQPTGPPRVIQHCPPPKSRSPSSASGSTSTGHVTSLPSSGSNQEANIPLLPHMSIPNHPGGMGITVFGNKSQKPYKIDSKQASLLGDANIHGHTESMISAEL
The target in experiment [6] is mouse ROR1 expressed on CHO cells (CHO-K1/Mouse ROR1 stable cells) (mouse) (UniProt Q9Z139). Kind of experiment: flow cytometry, 10 ug/ml antibody on Mouse ROR1-CHO-K1 cells (curve 2), fluorescent secondary antibody.
Sequence of mouse ROR1 expressed on CHO cells (CHO-K1/Mouse ROR1 stable cells) (mouse) (Q9Z139 30-937): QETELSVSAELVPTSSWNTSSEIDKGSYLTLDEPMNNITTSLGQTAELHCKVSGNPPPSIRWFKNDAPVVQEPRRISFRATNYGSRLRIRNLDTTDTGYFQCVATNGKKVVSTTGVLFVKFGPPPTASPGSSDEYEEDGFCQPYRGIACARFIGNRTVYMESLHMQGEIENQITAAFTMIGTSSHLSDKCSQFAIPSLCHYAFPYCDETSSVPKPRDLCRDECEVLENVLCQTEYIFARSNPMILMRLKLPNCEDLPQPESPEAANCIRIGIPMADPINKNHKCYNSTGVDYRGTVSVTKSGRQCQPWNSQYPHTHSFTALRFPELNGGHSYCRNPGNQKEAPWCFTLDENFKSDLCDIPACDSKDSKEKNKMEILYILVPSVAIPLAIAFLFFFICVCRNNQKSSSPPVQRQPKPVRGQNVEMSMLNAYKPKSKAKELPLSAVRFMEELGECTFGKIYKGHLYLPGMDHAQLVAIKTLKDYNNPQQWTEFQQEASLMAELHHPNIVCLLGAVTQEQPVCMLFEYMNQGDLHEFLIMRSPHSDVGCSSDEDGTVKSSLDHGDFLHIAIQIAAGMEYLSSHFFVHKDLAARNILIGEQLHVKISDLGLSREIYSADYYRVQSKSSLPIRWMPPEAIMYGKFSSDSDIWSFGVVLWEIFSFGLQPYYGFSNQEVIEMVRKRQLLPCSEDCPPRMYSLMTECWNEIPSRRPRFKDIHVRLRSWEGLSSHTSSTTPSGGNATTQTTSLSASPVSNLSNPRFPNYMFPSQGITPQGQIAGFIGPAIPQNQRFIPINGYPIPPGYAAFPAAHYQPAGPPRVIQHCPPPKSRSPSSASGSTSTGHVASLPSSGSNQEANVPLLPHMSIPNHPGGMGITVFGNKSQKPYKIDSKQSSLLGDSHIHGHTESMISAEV
For experiment [7], the target named is human ROR1 expressed on CHO cells (CHO-K1/Human ROR1 stable cells) (human) (UniProt Q01973). Description: flow cytometry, 10 ug/ml on Human ROR1-CHO-K1 cells (curve 1), fluorescent secondary antibody.
In experiment [8] the target is mouse ROR1 expressed on CHO cells (CHO-K1/Mouse ROR1 stable cells) (mouse) (UniProt Q9Z139). Description: flow cytometry, 10 ug/ml on Mouse ROR1-CHO-K1 cells (curve 2), fluorescent secondary antibody.
The target in experiment [9] is human ROR1 expressed on CHO cells (CHO-K1/Human ROR1 stable cells) (human) (UniProt Q01973). Description: flow cytometry, 10 ug/ml on Human ROR1-CHO-K1 cells (curve 1), fluorescent secondary antibody. The source holds these as a separate data set.
The target of experiment [10] is mouse ROR1 expressed on CHO cells (CHO-K1/Mouse ROR1 stable cells) (mouse) (UniProt Q9Z139). Description: flow cytometry, 10 ug/ml on Mouse ROR1-CHO-K1 cells (curve 2), fluorescent secondary antibody. This is another data set of the same source.
Experiment [11] deals with T1, human ROR1 expressed on CHO cells (CHO-K1/Human ROR1 stable cells) (human, UniProt Q01973 30-937).
T1 construct: whole, on cells; also called CHO-K1/ROR1/Luc (Nanjing Probio, Cat #RD00949)
T1 sequence (Q01973 30-937): as the sequence (Q01973 30-937) above
Kind of experiment: flow cytometry, 10 ug/ml antibody on Human ROR1-CHO-K1 cells (curve 1), fluorescent secondary antibody. How it is done: (§1) CHO cells expressing human and mouse ROR1 and parental cells as the negative control for detection were collected and washed 3 times with PBS. 2.5×10⁵ test cells and 100 μl of purified antibody at 10 μg/ml were added to a 96-well plate, and the plate was incubated at 4° C. for 1 hour. The cells were then washed 3 times with PBS, 100 μl of iFluor-labeled goat anti-human IgG, an Fcγ-specific fragment antibody, was added, and the plate was incubated at 4° C. for 45 minutes. Finally, the cells were washed 3 times with PBS, and the signals were read using FACS BD Calibur.

Experiment [12] deals with T2, human ROR1-His protein (fused with a His protein tag, Acrobiosystems, RO1-H522y) (human, UniProt Q01973 30-403).
T2 construct: also called recombinant human ROR1-His protein; not shown: His tag
T2 sequence (Q01973 30-403 limits assumed): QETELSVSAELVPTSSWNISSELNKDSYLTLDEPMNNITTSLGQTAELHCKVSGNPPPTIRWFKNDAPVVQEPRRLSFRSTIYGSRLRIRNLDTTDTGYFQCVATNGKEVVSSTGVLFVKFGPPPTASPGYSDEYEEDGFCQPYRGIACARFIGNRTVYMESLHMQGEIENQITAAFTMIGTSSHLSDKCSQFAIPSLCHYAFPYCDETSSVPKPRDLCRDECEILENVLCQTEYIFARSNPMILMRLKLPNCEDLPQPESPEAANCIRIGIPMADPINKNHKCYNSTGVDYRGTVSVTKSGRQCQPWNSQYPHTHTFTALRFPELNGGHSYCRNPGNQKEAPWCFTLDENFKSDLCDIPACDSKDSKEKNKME
Description: SPR Biacore T200, antibody Fc-captured, antigen as analyte. How it is done: The affinity of purified antibodies for human ROR1-related proteins was determined separately using the surface plasmon resonance (SPR) biosensor Biacore T200 (GE Healthcare). The antibodies were immobilized on the sensor chip by the Fc capture method. Human ROR1-related proteins were used as analytes. Data for dissociation (kd) and association (ka) rate constants were obtained using the Biacore T200 evaluation software. The equilibrium dissociation constant (KD) was calculated from the ratio of kd to ka.

Experiment [13] addresses T2, human ROR1-His protein (fused with a …). Description: indirect ELISA, antigen coated at 1 ug/ml. Here is the method: (§2) Indirect ELISA was used to assess the binding capability of the above purified antibodies to human ROR1-related recombinant proteins. ELISA plates (Nunc) were coated with 1 μg/ml of human ROR1-His protein, human ROR1 Frizzled-His domain protein, and human ROR1 Kringle-His domain protein in 100 μl/well of CBS overnight at 4° C. The plates were washed with PBS-T (0.05% Tween) and blocked with 300 μl/well of PBS containing 3% skim milk at 37° C. for 1 hour. Subsequently, the blocking solution was discarded, and 100 μl of purified antibody at 8 μg/ml (about 100 nM) was added to the first well and diluted according to a 3-fold gradient to obtain a total of 11 test concentration gradients. The plates were then incubated for 1 hour at room temperature. The plates were washed 3 times with PBST and incubated with 100 μl/well of horseradish peroxidase-conjugated mouse anti-human IgG Fc fragment (GenScript) for 0.5 hours at 37° C. The plates were washed five times with PBST, a TMB chromogenic solution (GenScript) was then added, and the plates were incubated for 15 minutes at room temperature in the dark. The reaction was stopped by adding 50 μl of 1 M HCl stop solution (Sigma). The plates were read at 450 nm using a microplate reader. FIGS. 1-3 show the results of the ELISA experiment on the binding of 8 positive recombinant antibody clones to ROR1-related antigen proteins, and the EC₅₀ for each antibody is as shown in Table 2 below: the antigen binding capacity of the antibodies tested was all equal to or higher than that of the positive reference antibody R11-scFv.

In experiment [14] the target is human ROR1 Frizzled-His domain protein (amino acid sequence at positions 165-305, Acrobiosystems, RO1-H5222) (human) (UniProt Q01973). Kind of experiment: indirect ELISA, plate coated with human ROR1 Frizzled-His, HRP anti-human IgG Fc, OD450.
Sequence of human ROR1 Frizzled-His domain protein (amino acid sequence at positions 165-305, Acrobiosystems, RO1-H5222) (human) (Q01973 165-305 limits assumed, form in doubt): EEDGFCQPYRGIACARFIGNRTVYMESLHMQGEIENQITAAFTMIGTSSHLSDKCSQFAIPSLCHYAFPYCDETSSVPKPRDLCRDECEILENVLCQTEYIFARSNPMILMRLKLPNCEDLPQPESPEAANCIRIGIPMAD
Experiment [15] addresses T3, mouse ROR1 expressed on CHO cells (CHO-K1/Mouse ROR1 stable cells) (mouse, UniProt Q9Z139 30-937).
T3 construct: whole, on cells
Kind of experiment: flow cytometry, 10 ug/ml antibody on Mouse ROR1-CHO-K1 cells (curve 2), fluorescent secondary antibody. Here is the method: as §1

Experiment [16] addresses T3, mouse ROR1 expressed on CHO cells …. Kind of experiment: flow cytometry, antibody at 10 ug/ml on CHO cells. How it is done: as §1
Experiment [17] concerns the target T4, human ROR1 Frizzled-His domain protein (amino acid sequence at positions 165-305, Acrobiosystems, RO1-H5222) (human, UniProt Q01973 165-305).
T4 construct: also called Human ROR1 Frizzled-His protein; not shown: His tag
Kind of experiment: indirect ELISA, antigen coated at 1 ug/ml. How it is done: as §2

In experiment [18] the target is T5, human ROR1 Kringle-His domain protein (amino acid sequence at positions 308-395, Acrobiosystems, RO1-H5223) (human, UniProt Q01973 308-395).
T5 construct: also called Human ROR1 Kringle-His protein; recombinant human ROR1 Kringle-His protein; not shown: His tag
T5 sequence (Q01973 308-395 limits assumed, form in doubt): as the sequence (Q01973 308-395 limits assumed, form in doubt) above
Kind of experiment: indirect ELISA, antigen coated at 1 ug/ml. How it is done:
as §2

T3 sequence (Q9Z139 30-937): as the sequence (Q9Z139 30-937) above
Sequence of human ROR1-His protein (fused with a His protein tag, Acrobiosystems, RO1-H522y) (human) (Q01973 30-403 limits assumed): as the sequence (Q01973 30-403 limits assumed) above
T4 sequence (Q01973 165-305 limits assumed, form in doubt): as the sequence (Q01973 165-305 limits assumed, form in doubt) above

As for Positive reference antibody R11-scFv, the EC50 (as a rule, the concentration at which the effect is half-maximal) in experiment [1] was found to be 0.104 µg/mL; in [2], 1.17 µg/mL.

“PE anti-human ROR1 Antibody (BioLegend, Cat #357804)” registered a Median : PE-H in experiment [3] of 13100. Further, the ROR1+ gate, percent of cells in experiment [4] worked out at 99.2.

On to Positive Ab- Cirmtuzumab (antibody), for which the Geometric Mean : Alexa Fluor 647-H was found to be 69000 in [5] and 32600 in experiment [6].

For Human IgG (antibody), the Geometric Mean : Alexa Fluor 647-H came out at 137 in experiment [7], 93.3 in experiment [8], 286 in experiment [9] and 135 in [10].

B1: single domain antibody AHP15773 (Fc fusion)
chain: EVQLVESGGGLVQPGGSLRLSCLASGSDFSDSAMGWYRQAPGKQREFVAAIGAGGITTYADSVKGRFTISRDSAKNIVYLQMSSLSPEDTAVYFCNFAPGWYPPGYQYWGQGTQVTVSS
notes: VHH expressed from pcDNA3.4-Fc (HuIgG1); also called AHP15773-VHH; not shown: human IgG1 Fc of the pcDNA3.4-Fc (HuIgG1) expression vector
Consider B1, for which the “Geometric Mean : Alexa Fluor 647-H” value in experiment [11] was determined as 33400. In experiment [12], the affinity, expressed as Kd, was 757 nM; the koff (usually a measure of how fast the partners let go of each other) was 0.117 s⁻¹; the kon (as a rule, a measure of how fast the partners come together) was 155000 M⁻¹ s⁻¹. The response in experiment [13] was half-maximal at 0.0155 µg/mL (EC50). Further, in experiment [14], the EC50 (read off the curve) (usually the concentration that produces a half-maximal response) was 0.07 µg/mL. In experiment [15], the “Geometric Mean : Alexa Fluor 647-H” value was 54900.

B2: single domain antibody AHP15768 (Fc fusion)
chain: QVQLVESGGGSVQAGGSLRLSCAVSGRSISLYNMGWFRQAPGKEREFVSAINWSGGRTYYADSVKGRFTISRNNAKNTMYLQMNSLKPEDTATYYCAVDVEGWFRVSGDAAGYDYWGQGTQVTVSS
notes: VHH expressed from pcDNA3.4-Fc (HuIgG1); not shown: human IgG1 Fc of the pcDNA3.4-Fc (HuIgG1) expression vector
In experiment [13], B2 gave an EC50 of 0.0203 µg/mL. Further, the binding result in experiment [16] was “binds”. This molecule yielded an EC50 (read off the curve) in experiment [14] of 0.1 µg/mL.

B3: single domain antibody AHP15547 (Fc fusion)
chain: AVQLVDSGGGSVQPGESLTLSCTGSARFLSNYGMGWYRQFPGKMREMVAYETNRGNKRYAESVKGRFRIARDAAKTTVYLEMNSLKPEDTAVYYCNAESSGWGRRNYWGQGTQVTVSS
notes: as for B2
As to B3, the concentration for a half-maximal effect (EC50) in [13] was 0.0105 µg/mL; in experiment [17] it was 0.0165 µg/mL. Also, in [16], the binding result was “binds”.

B4: single domain antibody AHP16026 (Fc fusion)
chain: QVQLVESGGGLVQPGGSLRLSCAVLGSIEQINDINYYRWYRQPPGKQRDLVASINNSGELIYADSVKGRFFISRDKYTVYLEMRSLKAEDTAVYYCNAQDRGEYWGRGTQVTVSS
notes: as for B2
In turn, B4 registered an EC50 in experiment [18] of 1.91 µg/mL.

B5: single domain antibody AHP15580 (Fc fusion)
chain: QVQLVESGGGVVQPGGSLRLSCAASGFVLRVNTVSWYRQAPGKQRELVALITSESNEYYDDSVKGRFTISRDNAKNTIYLHMNSLKPEDTGVYFCNFITTWGQGTQVTVSS
notes: as for B2
Take B5: the EC50 in experiment [18] was 0.0294 µg/mL; in [13], 0.0407 µg/mL. Besides, in experiment [16], the binding result is listed as “binds”.
